Reference: patent US9957535B2, “Methods, reagents and cells for biosynthesizing compounds” (INVISTA North America S.á r.l., priority 2014, dated 2018)

Key:
Format in all cases: biochemical
[1] = ω-transaminase enzyme activity assay, forward direction (glutarate semialdehyde to 5-aminopentanoate), pyruvate formation by RP-HPLC; details: for ω-transaminase acceptance of glutarate semialdehyde, synthesizing 5-aminopentanoate, concluded from reversibility: concluded from confirmed reversibility of the ω-transaminase activity
Description: (§1) A nucleotide sequence encoding an N-terminal His-tag was added to the genes from Chromobacterium violaceum and Rhodobacter sphaeroides encoding the ω-transaminases of SEQ ID NOs: 8 and 10 respectively (see FIG. 10) such that N-terminal HIS tagged ω-transaminases could be produced. Each of the resulting modified genes was cloned into a pET21a expression vector under control of the T7 promoter and each expression vector was transformed into a BL21[DE3] E. coli host. The resulting recombinant E. coli strains were cultivated at 37° C. in a 250 mL shake flask culture containing 50 mL LB media and antibiotic selection pressure, with shaking at 230 rpm. Each culture was induced overnight at 16° C. using 1 mM IPTG.
(§2) The pellet from each induced shake flask culture was harvested via centrifugation. Each pellet was resuspended and lysed via sonication. The cell debris was separated from the supernatant via centrifugation and the cell free extract was used immediately in enzyme activity assays.
Enzyme activity in the forward direction (i.e., glutarate semialdehyde to 5-aminopentanoate) was confirmed for the transaminase of SEQ ID NO 10. Enzyme activity assays were performed in a buffer composed of a final concentration of 50 mM HEPES buffer (pH=7.5), 10 mM glutarate semialdehyde, 10 mM L-alanine and 100 μM pyridoxyl 5′ phosphate. Each enzyme activity assay reaction was initiated by adding a cell free extract of the ω-transaminase gene product or the empty vector control to the assay buffer containing the glutarate semialdehyde and incubated at 25° C. for 4 h, with shaking at 250 rpm. The formation of pyruvate was quantified via RP-HPLC.

[2] = ω-transaminase enzyme activity assay (N5-acetyl-1,5-diaminopentane to N5-acetyl-5-aminopentanal), L-alanine formation by RP-HPLC; details: for ω-transaminase activity converting N5-acetyl-1,5-diaminopentane to N5-acetyl-5-aminopentanal (substrate acceptance): cell free extract, 10 mM N5-acetyl-1,5-diaminopentane, 10 mM pyruvate, pH 7.5, 25° C., 4 h, against empty vector control (FIG. 15); for ω-transaminase acceptance of N5-acetyl-5-aminopentanal forming N5-acetyl-1,5-diaminopentane, concluded from reversibility: concluded from reversibility of the ω-transaminase activity (Example 1)
Description: The activity of the N-terminal His-tagged ω-transaminases of SEQ ID NOs: 8, 10-13 (see Example 3, and FIG. 10) for converting N5-acetyl-1,5-diaminopentane to N5-acetyl-5-aminopentanal was assayed using a buffer composed of a final concentration of 50 mM HEPES buffer (pH=7.5), 10 mM N5-acetyl-1,5-diaminopentane, 10 mM pyruvate and 100 μM pyridoxyl 5′ phosphate. Each enzyme activity assay reaction was initiated by adding a cell free extract of the ω-transaminase or the empty vector control to the assay buffer containing the N5-acetyl-1,5-diaminopentane then incubated at 25° C. for 4 h, with shaking at 250 rpm. The formation of L-alanine was quantified via RP-HPLC.

[3] = carboxylate reductase enzyme activity assay (glutarate semialdehyde to pentanedial), NADPH consumption at 340 nm; details: purified enzyme enhanced by gene product of sfp, 2 mM glutarate semialdehyde, 1 mM ATP, 1 mM NADPH, pH 7.5, room temperature, 20 min, against empty vector control (FIG. 16)
Description: The N-terminal His-tagged carboxylate reductase of SEQ ID NO 7 (see Example 3 and FIG. 10) was assayed using glutarate semialdehyde as substrate. The enzyme activity assay was performed in triplicate in a buffer composed of a final concentration of 50 mM HEPES buffer (pH=7.5), 2 mM glutarate semialdehyde, 10 mM MgCl2, 1 mM ATP and 1 mM NADPH. The enzyme activity assay reaction was initiated by adding purified carboxylate reductase and phosphopantetheine transferase or the empty vector control to the assay buffer containing the glutarate semialdehyde and then incubated at room temperature for 20 min. The consumption of NADPH was monitored by absorbance at 340 nm.

[4] = ω-transaminase enzyme activity assay, reverse direction (5-aminopentanoate to glutarate semialdehyde), L-alanine formation from pyruvate by RP-HPLC; details: cell free extract, 10 mM 5-aminopentanoate, 10 mM pyruvate, pH 7.5, 25° C., 4 h, against empty vector control (FIG. 18)
Description: as §1, §2
Enzyme activity assays in the reverse direction (i.e., 5-aminopentanoate to glutarate semialdehyde) were performed in a buffer composed of a final concentration of 50 mM HEPES buffer (pH=7.5), 10 mM 5-aminopentanoate, 10 mM pyruvate and 100 μM pyridoxyl 5′ phosphate. […] The formation of L-alanine from pyruvate was quantified via RP-HPLC.

B1: SEQ ID NO 10: Pseudomonas syringae ω-transaminase (Genbank Accession No. AAY39893.1), N-terminal HIS tagged; b286 says Rhodobacter sphaeroides (protein, listed as Pseudomonas syringae)
chain: MSANNPQTLEWQALSSEHHLAPFSDYKQLKEKGPRIITRAEGVYLWDSEGNKILDGMSGLWCVAIGYGREELADAASKQMRELPYYNLFFQTAHPPVLELAKAISDIAPEGMNHVFFTGSGSEGNDTMLRMVRHYWALKGQPNKKTIISRVNGYHGSTVAGASLGGMTYMHEQGDLPIPGVVHIPQPYWFGEGGDMTPDEFGIWAAEQLEKKILELGVENVGAFIAEPIQGAGGVIVPPDSYWPKIKEILSRYDILFAADEVICGFGRTSEWFGSDFYGLRPDMMTIAKGLTSGYVPMGGLIVRDEIVAVLNEGGDFNHGFTYSGHPVAAAVALENIRILREEKIVERVRSETAPYLQKRLRELSDHPLVGEVRGVGLLGAIELVKDKTTRERYTDKGAGMICRTFCFDNGLIMRAVGDTMIIAPPLVISFAQIDELVEKARTCLDLTLAVLQG
modifications: N-terminal His tag
notes: b286 says Rhodobacter sphaeroides
For B1, the “ω-transaminase activity converting glutarate semialdehyde to 5-aminopentanoate (substrate acceptance)” value ([1]; cell free extract, 10 mM glutarate semialdehyde, 10 mM L-alanine, pH 7.5, 25° C., 4 h, against empty vector control (FIG. 19)) was “accepted glutarate semialdehyde as substrate”, the “ω-transaminase acceptance of glutarate semialdehyde, synthesizing 5-aminopentanoate, concluded from reversibility” value [1] was “accepted glutarate semialdehyde as substrate and synthesized 5-aminopentanoate” and the “ω-transaminase activity converting N5-acetyl-1,5-diaminopentane to N5-acetyl-5-aminopentanal (substrate acceptance)” value [2] was “accepted N5-acetyl-1,5-diaminopentane as substrate”. The “ω-transaminase acceptance of N5-acetyl-5-aminopentanal forming N5-acetyl-1,5-diaminopentane, concluded from reversibility” value [2] was “accept N5-acetyl-5-aminopentanal as substrate forming N5-acetyl-1,5-diaminopentane”.

B2: SEQ ID NO 7: Segniliparus rotundus carboxylate reductase (Genbank Accession No. ADG98140.1), N-terminal HIS tagged (protein, listed as Segniliparus rotundus)
chain: MTQSHTQGPQASAAHSRLARRAAELLATDPQAAATLPDPEVVRQATRPGLRLAERVDAILSGYADRPALGQRSFQTVKDPITGRSSVELLPTFDTITYRELRERATAIASDLAHHPQAPAKPGDFLASIGFISVDYVAIDIAGVFAGLTAVPLQTGATLATLTAITAETAPTLFAASIEHLPTAVDAVLATPSVRRLLVFDYRAGSDEDREAVEAAKRKIADAGSSVLVDVLDEVIARGKSAPKAPLPPATDAGDDSLSLLIYTSGSTGTPKGAMYPERNVAHFWGGVWAAAFDEDAAPPVPAINITFLPLSHVASRLSLMPTLARGGLMHFVAKSDLSTLFEDLKLARPTNLFLVPRVVEMLYQHYQSELDRRGVQDGTREAEAVKDDLRTGLLGGRILTAGFGSAPLSAELAGFIESLLQIHLVDGYGSTEAGPVWRDGYLVKPPVTDYKLIDVPELGYFSTDSPHPRGELAIKTQTILPGYYKRPETTAEVFDEDGFYLTGDVVAQIGPEQFAYVDRRKNVLKLSQGEFVTLAKLEAAYSSSPLVRQLFVYGSSERSYLLAVIVPTPDALKKFGVGEAAKAALGESLQKIARDEGLQSYEVPRDFIIETDPFTVENGLLSDARKSLRPKLKEHYGERLEAMYKELADGQANELRDIRRGVQQRPTLETVRRAAAAMLGASAAEIKPDAHFTDLGGDSLSALTFSNFLHDLFEVDVPVGVIVSAANTLGSVAEHIDAQLAGGRARPTFATVHGKGSTTIKASDLTLDKFIDEQTLEAAKHLPKPADPPRTVLLTGANGWLGRFLALEWLERLAPAGGKLITIVRGKDAAQAKARLDAAYESGDPKLAGHYQDLAATTLEVLAGDFSEPRLGLDEATWNRLADEVDFISHPGALVNHVLPYNQLFGPNVAGVAEIIKLAITTRIKPVTYLSTVAVAAGVEPSALDEDGDIRTVSAERSVDEGYANGYGNSKWGGEVLLREAHDRTGLPVRVFRSDMILAHQKYTGQVNATDQFTRLVQSLLATGLAPKSFYELDAQGNRQRAHYDGIPVDFTAESITTLGGDGLEGYRSYNVFNPHRDGVGLDEFVDWLIEAGHPITRIDDYDQWLSRFETSLRGLPESKRQASVLPLLHAFARPGPAVDGSPFRNTVFRTDVQKAKIGAEHDIPHLGKALVLKYADDIKQLGLL
modifications: N-terminal His tag
For B2, the “carboxylate reductase activity converting glutarate semialdehyde to pentanedial (substrate acceptance)” value [3] was “accepted glutarate semialdehyde as substrate”.

B3: SEQ ID NO 8: Chromobacterium violaceum ω-transaminase (Genbank Accession No. AAQ59697.1), N-terminal HIS tagged (protein, listed as Chromobacterium violaceum)
chain: MQKQRTTSQWRELDAAHHLHPFTDTASLNQAGARVMTRGEGVYLWDSEGNKIIDGMAGLWCVNVGYGRKDFAEAARRQMEELPFYNTFFKTTHPAVVELSSLLAEVTPAGFDRVFYTNSGSESVDTMIRMVRRYWDVQGKPEKKTLIGRWNGYHGSTIGGASLGGMKYMHEQGDLPIPGMAHIEQPWWYKHGKDMTPDEFGVVAARWLEEKILEIGADKVAAFVGEPIQGAGGVIVPPATYWPEIERICRKYDVLLVADEVICGFGRTGEWFGHQHFGFQPDLFTAAKGLSSGYLPIGAVFVGKRVAEGLIAGGDFNHGFTYSGHPVCAAVAHANVAALRDEGIVQRVKDDIGPYMQKRWRETFSRFEHVDDVRGVGMVQAFTLVKNKAKRELFPDFGEIGTLCRDIFFRNNLIMRACGDHIVSAPPLVMTRAEVDEMLAVAERCLEEFEQTLKARGLA
modifications: N-terminal His tag
In the case of B3, the “ω-transaminase acceptance of glutarate semialdehyde, synthesizing 5-aminopentanoate, concluded from reversibility” value [1] is reported as “accepted glutarate semialdehyde as substrate and synthesized 5-aminopentanoate”, the “ω-transaminase activity converting N5-acetyl-1,5-diaminopentane to N5-acetyl-5-aminopentanal (substrate acceptance)” value [2] is reported as “accepted N5-acetyl-1,5-diaminopentane as substrate” and the “ω-transaminase acceptance of N5-acetyl-5-aminopentanal forming N5-acetyl-1,5-diaminopentane, concluded from reversibility” value [2] is reported as “accept N5-acetyl-5-aminopentanal as substrate forming N5-acetyl-1,5-diaminopentane”. For the same molecule, the “ω-transaminase activity converting 5-aminopentanoate to glutarate semialdehyde (substrate acceptance)” value [4] was “accepted 5-aminopentanote as substrate”.
